According to publication PMC3038869:

Molecular target: Epidermal Growth Factor Receptor (EGFR), Drosophila, endogenous (Drosophila (endogenous in ovaries)) (UniProt P04412)
Experiment: co-IP; ovarian lysates of wild-type females or females expressing D-CblL or RING-SH2^Drk in follicle cells, immunoprecipitated with mouse monoclonal anti-EGFR, 4°C; blotted with rabbit anti-EGFR and anti-Drk

Chain of UniProt P04412 (P04412 31-1426): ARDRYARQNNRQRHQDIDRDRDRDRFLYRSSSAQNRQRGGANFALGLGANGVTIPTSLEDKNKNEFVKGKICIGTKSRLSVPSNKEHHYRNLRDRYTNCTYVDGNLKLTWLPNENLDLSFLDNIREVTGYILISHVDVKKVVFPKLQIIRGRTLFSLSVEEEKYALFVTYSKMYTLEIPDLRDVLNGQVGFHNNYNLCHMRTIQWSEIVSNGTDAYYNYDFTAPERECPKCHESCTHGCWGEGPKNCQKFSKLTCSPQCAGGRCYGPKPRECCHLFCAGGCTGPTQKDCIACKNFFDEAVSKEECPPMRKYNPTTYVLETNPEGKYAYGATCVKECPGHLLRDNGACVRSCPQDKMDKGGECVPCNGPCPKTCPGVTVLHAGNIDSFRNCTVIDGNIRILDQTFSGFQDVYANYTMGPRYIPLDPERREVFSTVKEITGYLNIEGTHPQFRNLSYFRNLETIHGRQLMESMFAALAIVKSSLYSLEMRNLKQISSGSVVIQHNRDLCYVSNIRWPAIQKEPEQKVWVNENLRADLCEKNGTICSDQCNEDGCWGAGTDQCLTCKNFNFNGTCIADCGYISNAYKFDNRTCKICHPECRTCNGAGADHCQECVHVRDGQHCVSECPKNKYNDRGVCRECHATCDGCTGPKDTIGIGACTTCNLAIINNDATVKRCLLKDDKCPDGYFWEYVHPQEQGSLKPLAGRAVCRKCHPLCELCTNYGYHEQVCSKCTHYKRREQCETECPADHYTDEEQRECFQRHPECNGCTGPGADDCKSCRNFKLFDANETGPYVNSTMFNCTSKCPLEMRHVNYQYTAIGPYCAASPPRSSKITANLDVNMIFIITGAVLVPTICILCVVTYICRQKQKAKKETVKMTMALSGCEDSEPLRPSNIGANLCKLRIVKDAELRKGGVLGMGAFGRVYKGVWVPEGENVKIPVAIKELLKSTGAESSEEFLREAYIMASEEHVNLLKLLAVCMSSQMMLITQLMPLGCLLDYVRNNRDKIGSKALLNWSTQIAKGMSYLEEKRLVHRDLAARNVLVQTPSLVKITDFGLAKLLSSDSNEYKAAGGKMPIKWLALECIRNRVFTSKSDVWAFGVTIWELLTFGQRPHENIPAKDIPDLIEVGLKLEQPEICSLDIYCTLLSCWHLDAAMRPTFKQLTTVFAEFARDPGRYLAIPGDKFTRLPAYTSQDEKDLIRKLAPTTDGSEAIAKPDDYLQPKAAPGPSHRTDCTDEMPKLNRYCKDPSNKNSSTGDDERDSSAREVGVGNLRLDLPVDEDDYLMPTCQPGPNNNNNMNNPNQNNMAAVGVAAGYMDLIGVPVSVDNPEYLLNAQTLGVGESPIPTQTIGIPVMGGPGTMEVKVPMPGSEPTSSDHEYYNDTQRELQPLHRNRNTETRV

percent reduction of Drk in the EGFR complex: 40%
Substance: RING-SH2^Drk, fusion of the RING finger domain of D-CblL and the SH2 domain of Drk (from UniProt Q08012 53-160)
